From the supplement of paper PMC11316812 come the findings set out here.

± gives the standard deviation of the averaged measurements.

One data set has as its system MCF7. As to the kind of experiment: percentage of EdU-negative (G0-arrested) nuclei per well, 72 h; higher = more G0 arrest. The settings on record: reference: sequence is the full UniProt precursor, the tested protein was the secreted form or ectodomain.
For the next data set, the system named is hTERT-HMEC. Described as above. The settings on record: reference: sequence is the full UniProt precursor, the tested protein was the secreted form or ectodomain.
Where [1] appears, read: protein concentration 0.016015 µM.
The mark [2] stands for this setting: protein concentration 0.16015 µM.
Setting [3] is: protein concentration 0.02225 µM.
Where [4] appears, read: protein concentration 0.2225 µM.
[5] abbreviates: protein concentration 0.0225 µM.
Setting [6] is: protein concentration 0.00925 µM.
Setting [7] is: protein concentration 0.0925 µM.
The mark [8] stands for this setting: protein concentration 0.00875 µM.
[9] abbreviates: protein concentration 0.0875 µM.
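Also: secreted proteins added to cultured cells, EdU pulse at the end, nuclei found by Hoechst imaging, EdU status from nuclear versus surrounding ring intensity ratio, PBS as neutral control.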

As for “MKVLLRLICFIALLISSLEADKCKEREEKIILVSSANEIDVRPCPLNPNEHKGTITWYKDDSKTPVSTEQASRIHQHKEKLWFVPAKVEDSGHYYCVVRNSSYCLRIKISAKFVENEPNLCYNAQAIFKQKLPVAGDGGLVCPYMEFFKNENNELPKLQWYKDCKPLLLDNIHFSGVKDRLIVMNVAEKHRGNYTCHASYTYLGKQYPITRVIEFITLEENKPTRPVIVSPANETMEVDLGSQIQLICNVTGQLSDIAYWKWNGSVIDEDDPVLGEDYYSVENPANKRRSTLITVLNISEIESRFYKHPFTCFAKNTHGIDAAYIQLIYPVTNFQKHMIGICVTLTVIIVCSVFIYKIFKIDIVLWYRDSCYDFLPIKASDGKTYDAYILYPKTVGEGSTSDCDIFVFKVLPEVLEKQCGYKLFIYGRDDYVGEDIVEVINENVKKSRRLIIILVRETSGFSWLGGSSEEQIAMYNALVQDGIKVVLLELEKIQDYEKMPESIKFIKQKHGAIRWSGDFTQGPQSAKTRFWKNVRYHMPVQRRSPSSKHQLLSPATKEKLQREAHVPLG”, the “percentage of EdU-negative” value in the data set with MCF7 (setting [1]) is 25.8 ± 1.6%; in the data set on MCF7 (setting [2]) it was 26.2 ± 0.51%; in the data set on hTERT-HMEC (setting [1]) it was 4.76 ± 0.26%; in the data set on hTERT-HMEC (setting [2]), 5.92 ± 0.43%.

As to “MRNWLVLLCPCVLGAALHLWLRLRSPPPACASGAGPADQLALFPQWKSTHYDVVVGVLSARNNHELRNVIRSTWMRHLLQHPTLSQRVLVKFIIGAHGCEVPVEDREDPYSCKLLNITNPVLNQEIEAFSLSEDTSSGLPEDRVVSVSFRVLYPIVITSLGVFYDANDVGFQRNITVKLYQAEQEEALFIARFSPPSCGVQVNKLWYKPVEQFILPESFEGTIVWESQDLHGLVSRNLHKVTVNDGGGVLRVITAGEGALPHEFLEGVEGVAGGFIYTIQEGDALLHNLHSRPQRLIDHIRNLHEEDALLKEESSIYDDIVFVDVVDTYRNVPAKLLNFYRWTVETTSFNLLLKTDDDCYIDLEAVFNRIVQKNLDGPNFWWGNFRLNWAVDRTGKWQELEYPSPAYPAFACGSGYVISKDIVKWLASNSGRLKTYQGEDVSMGIWMAAIGPKRYQDSLWLCEKTCETGMLSSPQYSPWELTELWKLKERCGDPCRCQAR [Q8NCR0]”, the “percentage of EdU-negative” value in the data set with MCF7 (setting [3]) stood at 25.7 ± 4.8%; in the data set on MCF7 (setting [4]) it was 29.39 ± 0.067%; in the data set with hTERT-HMEC (setting [3]) it was 5.56 ± 0.58%; in the data set on hTERT-HMEC (setting [4]) it was 11 ± 1%.

For “MLLLINVILTLWVSCANGQVKPCDFPDIKHGGLFHENMRRPYFPVAVGKYYSYYCDEHFETPSGSYWDYIHCTQNGWSPAVPCLRKCYFPYLENGYNQNYGRKFVQGNSTEVACHPGYGLPKAQTTVTCTEKGWSPTPRCIRVRTCSKSDIEIENGFISESSSIYILNKEIQYKCKPGYATADGNSSGSITCLQNGWSAQPICINSSEKCGPPPPISNGDTTSFLLKVYVPQSRVEYQCQPYYELQGSNYVTCSNGEWSEPPRCIHPCIITEENMNKNNIKLKGRSDRKYYAKTGDTIEFMCKLGYNANTSILSFQAVCREGIVEYPRCE”, the “percentage of EdU-negative” value turned out to be 28 ± 0.75% in the data set on MCF7 (setting [5]), 29.4 ± 0.63% in the data set on MCF7 (protein concentration 0.225 µM), 5.2 ± 0.45% in the data set with hTERT-HMEC (setting [5]) and 5.74 ± 0.65% in the data set with hTERT-HMEC (protein concentration 0.225 µM).

As for “MAASRWARKAVVLLCASDLLLLLLLLPPPGSCAAEGSPGTPDESTPPPRKKKKDIRDYNDADMARLLEQWEKDDDIEEGDLPEHKRPSAPVDFSKIDPSKPESILKMTKKGKTLMMFVTVSGSPTEKETEEITSLWQGSLFNANYDVQRFIVGSDRAIFMLRDGSYAWEIKDFLVGQDRCADVTLEGQVYPGKGGGSKEKNKTKQDKGKKKKEGDLKSRSSKEENRAGNKREDL”, the “percentage of EdU-negative” value with MCF7 (setting [5]) amounted to 27.3 ± 3.2%; in the data set with MCF7 (protein concentration 0.225 µM) it was 27.3 ± 1%; in the data set with hTERT-HMEC (setting [5]), 5.03 ± 0.66%; in the data set on hTERT-HMEC (protein concentration 0.225 µM), 11 ± 0.91%.

For the sequence “MLQGPGSLLLLFLASHCCLGSARGLFLFGQPDFSYKRSNCKPIPANLQLCHGIEYQNMRLPNLLGHETMKEVLEQAGAWIPLVMKQCHPDTKKFLCSLFAPVCLDDLDETIQPCHSLCVQVKDRCAPVMSAFGFPWPDMLECDRFPQDNDLCIPLASSDHLLPATEEAPKVCEACKNKNDDDNDIMETLCKNDFALKIKVKEITYINRDTKIILETKSKTIYKLNGVSERDLKKSVLWLKDSLQCTCEEMNDINAPYLVMGQKQGGELVITSVKRWQKGQREFKRISRSIRKLQC [Q96HF1]”, the “percentage of EdU-negative” value in the data set on MCF7 (setting [6]) stood at 21.9 ± 2.5%; in the data set with MCF7 (setting [7]) it was 26.3 ± 1.9%; with hTERT-HMEC (setting [6]), 5.51 ± 0.23%; with hTERT-HMEC (setting [7]), 5.34 ± 0.013%.

For the sequence “MKSFLLVVNALALTLPFLAVEVQNQKQPACHENDERPFYQKTAPYVPMYYVPNSYPYYGTNLYQRRPAIAINNPYVPRTYYANPAVVRPHAQIPQRQYLPNSHPPTVVRRPNLHPSFIAIPPKKIQDKIIIPTINTIATVEPTPAPATEPTVDSVVTPEAFSESIITSTPETTTVAVTPPTA”, the “percentage of EdU-negative” value turned out to be 24.6 ± 1.5% in the data set on MCF7 (protein concentration 0.01 µM), 25.6 ± 1.9% with MCF7 (protein concentration 0.1 µM), 5.78 ± 0.51% in the data set with hTERT-HMEC (protein concentration 0.01 µM) and 5.65 ± 0.83% with hTERT-HMEC (protein concentration 0.1 µM).

As for “MVPAAGALLWVLLLNLGPRAAGAQGLTQTPTEMQRVSLRFGGPMTRSYRSTARTGLPRKTRIILEDENDAMADADRLAGPAAAELLAATVSTGFSRSSAINEEDGSSEEGVVINAGKDSTSRELPSATPNTAGSSSTRFIANSQEPEIRLTSSLPRSPGRSTEDLPGSQATLSQWSTPGSTPSRWPSPSPTAMPSPEDLRLVLMPWGPWHCHCKSGTMSRSRSGKLHGLSGRLRVGALSQLRTEHKPCTYQQCPCNRLREECPLDTSLCTDTNCASQSTTSTRTTTTPFPTIHLRSSPSLPPASPCPALAFWKRVRIGLEDIWNSLSSVFTEMQPIDRNQR [Q9BUN1]”, the “percentage of EdU-negative” value turned out to be 25.2 ± 0.46% with MCF7 (setting [8]), 26.9 ± 2.7% in the data set on MCF7 (setting [9]), 4.62 ± 0.76% with hTERT-HMEC (setting [8]) and 10.6 ± 1.3% with hTERT-HMEC (setting [9]).
